Laboratory results published in patent US8415306B2, “Insulin-like growth factor 1 receptor binding peptides” (Janssen Biotech, Inc., priority 2010, dated 2013).

What was measured:
insulin receptor = insulin receptor (Homo sapiens, UniProt P06213); test: phage lysate binding to insulin receptor (cross-reactivity)
Experimental: Total of 384 individual phage lysates from the panning were tested for binding specificity towards sIGF1R in a solid phase phage ELISA. Briefly, 100 μl/well of 5 μg/ml sIGF1R (R&D Systems, Minneapolis, Minn.) was bound to Black Maxisorp Plates (Nunc, Rochester, N.Y.), 25 μl of phage lysate added, and the reaction was detected using anti-M13-HRP antibody (EMD Biosciences, Gibbstown, N.J.) and POD substrate (Roche, Indianapolis, Ind.), and the signal detected using a TEKAN plate reader. […] Positive lysates were defined as clones with a sIGF1R specific signal that was three fold above the background of the negative control. A total of 13 clones with unique peptide sequences were obtained with confirmed binding to the sIGF1R (Table 1). From these 13 clones, 3 (clones 5, 13 and 16) cross-reacted with the insulin receptor.

sIGF1R [1] = target: T1, sIGF1R (Homo sapiens, UniProt P08069); test: ELISA relative binding affinity of PG-peptide fusions for sIGF1R; conditions: for EC50: PG-peptide fusion, ELISA on 2 μg/ml coated sIGF1R, one site binding equation
T1 construct: hexahistidine (C); purchased R&D Systems
Excerpt: The identified IFG1R binding peptides were cloned in-frame to the C-terminus of the protein G IgG domain (PG) in a modified pET17b vector (EMD Chemicals, Gibbstown, N.J.) having a ligation independent cloning site (LIC) to generate PG-peptide fusions. The IgG binding domain of protein G is stable and thus enabled easy purification of the fusion protein from bacterial lysates. The amino acid sequence of the protein G IgG domain used is shown in SEQ ID NO: 31. The PG-peptide fusions were expressed in bacteria upon 1 mM IPTG induction and purified using IgG Sepharose beads (GE Healthcare Life Sciences, Piscataway, N.J.) from the bacterial lysates cleared by centrifugation at 16,000 g, 4° C. for 20 min.
(§1) Relative binding affinities of the PG-peptide fusions for sIGF1R were measured using ELISA. The Kds were determined using GraphPad Prism 4 software with a one site binding equation. 100 μl of 2 μg/ml sIGF1R(R&D Systems, Minneapolis, Minn.) in Dulbecco's Phosphate Buffer Saline (DPBS (−/−)) was coated onto a 96 well Black Maxisorp plates (Nunc, Rochester, N.Y.) overnight at 4° C. The plates were washed with TBST and the wells blocked with 200 μl/well Starting Block T20 (TBS) (Pierce, Rockford, Ill.) for 1 hr, room temperature with 300 rpm shaking. 75 μl/well of purified, serially diluted PG-peptide fusions, starting concentration 40 μM, was added into the wells and incubated for 1 h, room temperature with 300 rpm mixing; the volume was brought up to 100 μl with Starting Block T20. The plates were washed 3× with TBST and then probed with 100 μl/well Peroxidase labeled-Rabbit antibody (1:5000) (Rockland, Gilbertsville, Pa.), washed, and the signal was detected using 100 μl/well POD substrate (Roche, Indianapolis, Ind.). Chemiluminescence was detected using a Molecular Devices M5 plate reader.

[2] = test system: rat brain microvascular endothelial cell model; test: in vitro BBB model, transcytosis of peptide-AP fusions; assay type: cell-based; conditions: 25 μg peptide-AP fusion in top chamber, detected in bottom chamber at 15 and 30 minute by ELISA
Experimental: Select sIGF1R binding peptides were further characterized in the in vitro blood-brain barrier model, rat brain microvascular endothelial cell model.
Rat Brain capillary endothelial cells were prepared as described (Perriere et al., J. Neurochem. 93:279-289, 2005). Briefly, brains from 6-8 week old male Sprague Dawley rats were rolled on 3 MM chromatography paper to remove the meniges, cut sagitally, and the white matter dissected leaving the cortices, which were then minced thoroughly. The minced cortices were transferred to a 50 ml polypropylene conical tube with 20 ml DMEM supplemented with 39 units/ml DNase I (Worthington, Lakewood, N.J.) and 0.7 mg/ml Collagenase type 2 (Worthington, Lakewood, N.J.) at final concentration and incubated at 37° C. with gentle mixing for 1.25 hrs. After a brief centrifugation the resultant pellet was resuspended in 20 ml 20% BSA (Sigma, St. Louis, Mo.) in DMEM, centrifuged and the microvessel enriched pellet was isolated a digested a second time with 20 ml DMEM supplemented with 39 units/ml DNase 1 and 1 mg/ml Collagenase/Dispase (Roche, Indianapolis, Ind.) at 37° C. for 1 hr. The digestion was briefly centrifuged and the resulting cell pellet was resuspended in 2 ml DMEM and subsequently layered onto the top of a 33% continuous Percoll gradient, centrifuged, and the enriched microvessel fraction was removed and briefly centrifuged a second time. The cell pellet was resuspended in 10 ml complete rat brain microvascular endothelial cell growth media (DMEM, 20% Plasma Derived Serum (PDS), 100 μg/ml Heparin, 2 mM L-Glutamine, 100 U/ml penicillin, 100 μg/ml streptomycin, 0.25 μg/ml amphotericin) and plated onto a 10 cm tissue culture dish for 4 hrs at 37° C., 5% CO2. After 4 hrs cells that remained unattached were pipetted off and counted in a hemacytometer using Trypan Blue. The cells were plated into the top chamber of the Transwells (0.4 μm pore size, diameter 1.12 cm, Corning, Acton, Mass.) treated with 400 μg/ml collagen type IV (Sigma, St. Louis, Mo.) and 100 μg/ml fibronectin (Sigma, St. Louis, Mo.) at a density of 6×10^5 cells/ml, 500 μl per well. 1 ml of growth media was placed into the bottom chamber. Both chambers were supplemented with 4 μg/ml puromycin (Clontech, Mountain View, Calif.) and the plates were incubated at 37° C., 5% CO2 overnight. The next day the media was changed with fresh complete culture media with 4 μg/ml puromycin and the cells were placed back into the incubator overnight. The next day the media was changed with complete culture media and again two days after. Cultures were monitored by eye till they reached 100% confluence, ˜6-7 days after seeding. The developed in vitro BBB model had high transendothelial electrical resistance (>100 ohms-cm^2), measured using Millicell-ERS (Millipore, Billercia, Mass.) and very low Na-Fluorescein permeability (about 1-5×10^−6 cm/s).
25 μg of purified peptide-AP fusions were added to the top chamber of the in vitro BBB model and transcytosed peptide-AP fusions were detected at 15 and 30 minute timepoints in the bottom chamber using ELISA. Briefly, 75 μl of each sample was transferred to plates coated with 5 μg/ml mouse monoclonal anti-bacterial AP antibody (Sigma, St. Louis, Mo.). The plate was incubated for 1 hr, washed, the signal was developed with Attophos Substrate (Roche, Indianapolis, Ind.) according to manufacturer's recommendation, and read using a Molecular Devices M5 plate reader with 440 nm excitation and 550 nm emission.

sIGF1R [3] = target: T1, sIGF1R; test: competition ELISA of PG-peptide fusions with IGF-1 on sIGF1R; assay type: binding; conditions: PG-peptide fusion, IGF-1 400 nM final
Experimental: as §1
For competition assays, insulin-like growth factor 1 (IGF-1) (R&D Systems, Minneapolis, Minn.) was added to the Starting Block T20 used to bring the volume up to 100 μl at a concentration of 400 nM final.

| Substance | cross-reaction with the insulin receptor (insulin receptor) | EC50 (sIGF1R [1]) [nM] | Transcytosis [2] | Competed by IGF-1 (sIGF1R [3]) | binding curve shape (binding profile) (sIGF1R [1]; PG-peptide fusion on sIGF1R) |
| --- | --- | --- | --- | --- | --- |
| 5 (TGCDFPELCRGCHP; IGF1R binding peptide from pIX library) [Clone 5] | cross-reacted | 750 | yes | – | – |
| 7 (PFCYSGGPLPYPCTY; IGF1R binding peptide from pIX library) [Clone 7] | – | 1800 | – | – | – |
| 6 (AECEWPWLTLELCQS; IGF1R binding peptide from pIX library) [Clone 6] | – | 1000 | yes | – | – |
| 13 (WHCTPLTQIADPGSIIHILECTV; IGF1R binding peptide from pIX library) [Clone 13] | cross-reacted | > 50000 | no | yes | – |
| 11 (HTCFYPTLMPPELCFD; IGF1R binding peptide from pIX library) [Clone 11] | – | 1200 | no | yes | – |
| 16 (AGCPSPMPPVDPGFYSAIVQLCRE; IGF1R binding peptide from pIX library) [Clone 16] | cross-reacted | 8200 | yes | yes | – |
| 8 (PVCPSFCYDQYVCPT; IGF1R binding peptide from pIX library) [Clone 8] | – | 1600 | yes | – | – |
| 9 (FTCAVYSLSELDCRD; IGF1R binding peptide from pIX library) [Clone 9] | – | 3500 | no | – | – |
| 17 (DDIDEFLHQLHNLVNNVH; IGF1R binding peptide from pIX library) [Clone 17] | – | – | no | yes | bellshaped |
| 10 (LSCYDPTLRTLYCHV; IGF1R binding peptide from pIX library) [Clone 10] | – | 4300 | – | – | – |
| 12 (SNCPPLDMRLTELCVM; IGF1R binding peptide from pIX library) [Clone 12] | – | 1800 | yes | – | – |
| 15 (MTCAWHTLHTDPGLTPQLTLPCIY; IGF1R binding peptide from pIX library) [Clone 15] | – | 2600 | – | – | – |
| 14 (VECDTPSITFSPGLEALFWNTCSP; IGF1R binding peptide from pIX library) [Clone 14] | – | 850 | no | yes | – |
